Results as given in US20060286609A1 (BIOCHECK, published 2006).

B1: rabbit monoclonal anti-mouse Id1, clone #BCH-1/#37-2 (antibody, V domains shown)
VH: QSVEESGGRLVTPGTPLTLTCKVSGFDINSYAMDWFRQAPGKGLEWIGMMSTRGNTYYTSWAKGRFTISKTSSTTVDLKMTSLTTEDTATYFCARGGLWGPGTLVTVSS
VL: RVLTQTASPVSAAVGGTVTINCQASQSVYNGNRLGWYQLKPGQSPKELIHDASTLASGVPSRFRGSGSGTQFTLTINDVQCDDAATYYCVGSYACSTGDCNVFGGGTEVVVK
notes: Rabbit IgG from hybridoma, Protein G purified; also called m Id1 MoAb 37-2; Rabbit Monoclonal Anti-Mouse Id1 (#37-2)

What was measured:
[1] = target: Human Id1: Histidine (human) (UniProt P41134); assay: sandwich ELISA, 5-3-coated wells, human Id1:His 0 ng/ml (blank), detected with rabbit polyclonal B-5133-HRP
Sequence of Human Id1: Histidine (human) (P41134 whole entry): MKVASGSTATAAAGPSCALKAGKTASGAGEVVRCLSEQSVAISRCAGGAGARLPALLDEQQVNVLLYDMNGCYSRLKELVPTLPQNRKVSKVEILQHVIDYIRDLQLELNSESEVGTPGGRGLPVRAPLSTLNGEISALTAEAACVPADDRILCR

[2] = target: Human Id1: Histidine (human) (UniProt P41134); assay: sandwich ELISA, 5-3-coated wells, human Id1:His 5.0 ng/ml, detected with rabbit polyclonal B-5133-HRP
[3] = target: Human Id1: Histidine (human) (UniProt P41134); assay: sandwich ELISA, 5-3-coated wells, human Id1:His 2.5 ng/ml, detected with rabbit polyclonal B-5133-HRP
[4] = target: Human Id1: Histidine (human) (UniProt P41134); assay: sandwich ELISA, 5-3-coated wells, human Id1:His 25.0 ng/ml, detected with rabbit polyclonal B-5133-HRP
[5] = target: Human Id1: Histidine (human) (UniProt P41134); assay: sandwich ELISA, 5-3-coated wells, human Id1:His 50.0 ng/ml, detected with rabbit polyclonal B-5133-HRP
[6] = target: Human Id1: Histidine (human) (UniProt P41134); assay: ELISA, coated antigen, Ab 0 ug/ml (blank)
Human Id3: Histidine = target: T1, Human Id3: Histidine (human, UniProt Q02535 1-119, limits assumed); assay: ELISA, coated antigen, Ab 10.0 ug/ml
T1 construct: E. coli fusion protein (vector pGW07); also called h-Id3: His; not shown: His-tag
T1 sequence (looked up): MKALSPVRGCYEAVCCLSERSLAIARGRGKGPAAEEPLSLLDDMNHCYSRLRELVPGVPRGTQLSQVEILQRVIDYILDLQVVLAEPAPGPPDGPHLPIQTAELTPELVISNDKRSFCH
Procedure: (§1) Incubate plates at 2-8° C. overnight (16-24 hours). [0145] 11. Shake off the BSA solution. [0146] 12. Dispense 250 μL of 2.5% sucrose solution into each well. [0147] 13. Incubate plates at 2-8° C. for 4 hours. [0148] 14. Shake off sucrose solution. [0149] 15. Dry in vacuum at room temperature overnight. Screening Method [0150] 1. Dispense 100 μL of antibody diluent, diluted rabbit polyclonal anti-Id1 into appropriate wells. […] 2. Incubate at room temperature with mechanical shaking at 750 rpm for 90 minutes. [0152] 3. Remove the incubation mixture by flicking plate content into an appropriate waste container, followed by rinsing the wells 5 times with distilled water. […] 4. Strike the wells sharply onto absorbent paper or paper towels to remove all residual water droplets. [0154] 5. Dispense 100 μL of Goat Anti-Rabbit IgG-HRP Conjugate Reagent into each well. Gently mix for 5 seconds. [0155] 6. Incubate at room temperature with mechanical shaking at 750 rpm for 90 minutes. […] 7. Repeat procedures 3 and 4. [0157] 8. Dispense 100 μL of TMB Reagent into each well. Gently mix for 5 seconds. [0158] 9. Incubate at room temperature with mechanical shaking at 750 rpm for 20 minutes. [0159] 10. Add 100 μL of Stop Solution (1N HCl) into each well. [0160] 11. Gently mix for 10 seconds to ensure a complete mixing. […] 12. Read optical density (absorbance) at 450 nm. Results from this assay were used to select the rabbit sera with the highest antibodies titer that selectively reacts with mouse Id1 or human Id1 or both.
(§2) A comparison was carried out between the reactivity of the rabbit monoclonal anti-mouse Id1, clone #BCH-1/#37-2, of this invention and the mouse monoclonal anti-mouse/human Id1 from BD Pharmingen with the following antigens prepared in Example 5: mouse Id1:His, human Id1:His, human Id2:His, human Id3:His, and GST. These antigens and protein were used to coat the wells.
(§3) Materials and methods were those described in Example 9 except (a) Pharmingen's mouse monoclonal anti-mouse Id1 was used in addition to the rabbit monoclonal anti-mouse Id1 (Example 10), and (b) goat anti-mouse IgG-HRP conjugate was used to process the wells treated with the Pharmingen monoclonal antibody and polyclonal goat anti-rabbit IgG-HRP conjugate was used to process wells treated with rabbit monoclonal anti-mouse Id1.

[7] = target: T2, glutathione S-transferase (GST) (UniProt P08515 1-218 = GST); assay: ELISA, coated antigen, Ab 10.0 ug/ml
T2 construct: Coated on wells as control for the fusion partner of the immunogen
T2 sequence (P08515 whole entry, the tested form may be a part): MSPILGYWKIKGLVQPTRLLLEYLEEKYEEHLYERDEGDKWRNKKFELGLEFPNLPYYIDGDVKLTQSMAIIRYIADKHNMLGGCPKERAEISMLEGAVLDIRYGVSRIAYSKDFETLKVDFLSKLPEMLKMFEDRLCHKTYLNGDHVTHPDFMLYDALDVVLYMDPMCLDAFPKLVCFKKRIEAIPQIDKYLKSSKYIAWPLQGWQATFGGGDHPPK
Procedure: as §1, §2, §3

Human Id2: Histidine = target: T3, Human Id2: Histidine (human, UniProt Q02363 1-134, limits assumed); assay: ELISA, coated antigen, Ab 10.0 ug/ml
T3 construct: E. coli fusion protein (vector pGW07); also called h-Id2: His; not shown: His-tag
T3 sequence (looked up): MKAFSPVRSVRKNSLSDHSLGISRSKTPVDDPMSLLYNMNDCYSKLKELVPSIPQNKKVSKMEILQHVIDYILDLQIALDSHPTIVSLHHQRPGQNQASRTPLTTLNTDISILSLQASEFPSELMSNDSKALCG
Procedure: as §1, §2, §3

Mouse Id1: Histidine = target: T4, Mouse Id1: Histidine (mouse, UniProt P20067-2 1-148); assay: ELISA, coated antigen, Ab 10.0 ug/ml
T4 construct: E. coli fusion protein (vector pGW07); also called m-Id1-His; not shown: His-tag
T4 sequence: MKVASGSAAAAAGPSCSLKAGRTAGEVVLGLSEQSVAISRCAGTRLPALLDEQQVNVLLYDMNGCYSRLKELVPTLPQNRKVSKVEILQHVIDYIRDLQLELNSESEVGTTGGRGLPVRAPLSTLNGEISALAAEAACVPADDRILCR
Procedure: as §1, §2, §3

[8] = target: T2, glutathione S-transferase (GST); assay: ELISA, coated antigen, Ab up to 10.0 ug/ml
Procedure, shortened: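 Wells were coated with glutathione S-transferase and handled by an ELISA protocol. Coating buffers were 0.2 M sodium phosphate pH 6.5 and 10 mM potassium phosphate pH 7.4, with BSA/sodium azide and sucrose solutions. Antibodies were applied up to 10.0 ug/ml. Bound rabbit antibody was detected with goat anti-rabbit IgG-HRP conjugate and bound mouse antibody with goat anti-mouse IgG-HRP conjugate.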

[9] = target: Human Id1: Histidine (human) (UniProt P41134); assay: ELISA, coated antigen, Ab 0.50 ug/ml
[10] = target: Human Id1: Histidine (human) (UniProt P41134); assay: ELISA, coated antigen; relative to mouse Id1
[11] = target: Human Id1: Histidine (human) (UniProt P41134); assay: ELISA, coated antigen, Ab 5.00 ug/ml
[12] = target: Human Id1: Histidine (human) (UniProt P41134); assay: ELISA, coated antigen, Ab 0.25 ug/ml
[13] = target: Human Id1: Histidine (human) (UniProt P41134); assay: ELISA, coated antigen, Ab 2.50 ug/ml

Molecule	A450 [1]	A450 [2]	A450 [3]	A450 [4]	A450 [5]	A450 [6]	A450 (Human Id3: Histidine)	A450 [7]	A450 (Human Id2: Histidine)	A450 (Mouse Id1: Histidine)	binding result [8]	A450 [9]	Cross-reactivity (%) [10]	A450 [11]	A450 [12]	A450 [13]
rabbit monoclonal anti-human Id1, clone #BCH-2/#5-3 (antibody)	0.046 A450	0.365 A450	0.244 A450	1.94 A450	3.15 A450	–	–	–	–	–	–	–	–	–	–	–
B1	–	–	–	–	–	0.047 A450	0.113 A450	0.108 A450	0.115 A450	3.27 A450	no binding	0.091 A450	< 1%	0.153 A450	0.07 A450	0.132 A450
